Assay [1] has as its target 重组Grb2蛋白 (recombinant Grb2 protein) (UniProt P62993). In words: ELISA, recombinant Grb2 coated, antibody 100 ng/mL, goat anti-human IgG Fc-HRP secondary. (In general: ELISA stands for enzyme-linked immunosorbent assay.)
For assay [2] the target is unchanged. Kind of assay: ELISA, recombinant Grb2 coated, antibody 100 ng/mL, goat anti-mouse IgG Fc-HRP secondary (does not detect human IgG).

Consider one substance from patent CN110563841A.

Chain of UniProt P62993 (P62993 whole entry): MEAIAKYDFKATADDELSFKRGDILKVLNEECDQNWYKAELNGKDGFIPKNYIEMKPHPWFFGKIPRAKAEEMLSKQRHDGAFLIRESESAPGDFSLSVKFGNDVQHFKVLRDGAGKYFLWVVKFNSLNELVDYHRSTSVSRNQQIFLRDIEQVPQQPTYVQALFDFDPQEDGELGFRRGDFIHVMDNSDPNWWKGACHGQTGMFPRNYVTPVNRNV

On to “人IgG1 (irrelevant human IgG1 control antibody)”, for which the OD490 in assay [1] and in assay [2] was 0.073 each time.
